# Laboratory results published in patent US20150004189A1 (published 2015).
# Residue numbers refer to the chain shown, from its start.
# T1: HLA-DP DPB1*0201 (human)
# T1 chain 1: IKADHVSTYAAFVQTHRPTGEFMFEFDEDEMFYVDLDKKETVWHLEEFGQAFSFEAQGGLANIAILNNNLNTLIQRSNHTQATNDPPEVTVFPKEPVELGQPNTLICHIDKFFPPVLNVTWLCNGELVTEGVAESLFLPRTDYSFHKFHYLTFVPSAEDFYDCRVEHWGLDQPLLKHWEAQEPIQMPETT
# T1 chain 2: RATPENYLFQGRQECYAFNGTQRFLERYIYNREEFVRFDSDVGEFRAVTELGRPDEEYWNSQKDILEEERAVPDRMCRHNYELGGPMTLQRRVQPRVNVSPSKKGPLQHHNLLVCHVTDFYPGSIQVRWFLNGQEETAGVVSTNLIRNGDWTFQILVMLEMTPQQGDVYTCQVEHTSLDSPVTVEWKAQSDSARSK
# T2: HLA-DP DPB1*0401 (human)
# T2 chain 1: T1 chain 1
# T2 chain 2: T1 chain 2 with V36A, D55A, E56A, E69K
# Molecular target: HLA-DQ molecule DQB1*0202 (human)
# Assay: inhibition of radiolabeled peptide binding to purified HLA
row,Binder,IC50 [nM]
1,SGVAATESAYLAYRN [Der p 1 peptide 3324.0829 (position 136)],871
2,AFMLAWNYGVPRVMS [Der p 4 peptide 3324.0977 (position 321)],8360
3,SRGNRAFIAINLQKN [Der p 4 peptide 3324.0974 (position 416)],7390
4,YQIAFSRGNRAFIAI [Der p 4 peptide 3324.0980 (position 411)],8720
5,REALAQTHSAIAVII [Der p 1 peptide 3324.0840 (position 226)],629
6,FDAFVAYHIGARIVS [Der p 4 peptide 3324.0971 (position 482)],4750
7,RTLNKIVYIKPAKNI [Bet v 6 peptide 3324.0387 (position 206)],12500
8,GGSILKISNKFHTKG [Aln g 1 peptide 3324.0007 (position 111)],50000
9,PSVIPAARLFKAFIL [Aln g 1 peptide 3324.0004 (position 11)],11200
10,YVGHDEFDAFVAYHI [Der p 4 peptide 3324.0975 (position 476)],8140
11,IEFRFYKEITNVFRG [Der p 4 peptide 3324.0976 (position 251)],6200

# Molecular target: HLA-DQ molecule DQB1*0502 (human)
# Assay: as above
row,Binder,IC50 [nM]
1,AFMLAWNYGVPRVMS [Der p 4 peptide 3324.0977 (position 321)],992
2,SRGNRAFIAINLQKN [Der p 4 peptide 3324.0974 (position 416)],546
3,EHRWREIYNMVKFRM [Der p 4 peptide 3324.0986 (position 381)],8940
4,SCWAFSGVAATESAY [Der p 1 peptide 3324.0832 (position 131)],4400
5,YVGHDEFDAFVAYHI [Der p 4 peptide 3324.0975 (position 476)],5040
6,IEFRFYKEITNVFRG [Der p 4 peptide 3324.0976 (position 251)],5520

# Molecular target: HLA-DQ molecule DQB1*0503 (human)
# Assay: as above
row,Binder,IC50 [nM]
1,AFMLAWNYGVPRVMS [Der p 4 peptide 3324.0977 (position 321)],339
2,SRGNRAFIAINLQKN [Der p 4 peptide 3324.0974 (position 416)],84
3,EHRWREIYNMVKFRM [Der p 4 peptide 3324.0986 (position 381)],4240
4,YQIAFSRGNRAFIAI [Der p 4 peptide 3324.0980 (position 411)],1410
5,REALAQTHSAIAVII [Der p 1 peptide 3324.0840 (position 226)],32100
6,FDAFVAYHIGARIVS [Der p 4 peptide 3324.0971 (position 482)],1080
7,RTLNKIVYIKPAKNI [Bet v 6 peptide 3324.0387 (position 206)],3460
8,PSVIPAARLFKAFIL [Aln g 1 peptide 3324.0004 (position 11)],1450
9,IEFRFYKEITNVFRG [Der p 4 peptide 3324.0976 (position 251)],4370

# Molecular target: HLA-DQ molecule DQB1*0602 (human)
# Assay: as above
row,Binder,IC50 [nM]
1,AFMLAWNYGVPRVMS [Der p 4 peptide 3324.0977 (position 321)],762
2,SRGNRAFIAINLQKN [Der p 4 peptide 3324.0974 (position 416)],98
3,FDAFVAYHIGARIVS [Der p 4 peptide 3324.0971 (position 482)],54
4,RTLNKIVYIKPAKNI [Bet v 6 peptide 3324.0387 (position 206)],58
5,GGSILKISNKYHTKG [Bet v 1 peptide 3324.0352 (position 111)],6060
6,RGIEYIQHNGVVQES [Der p 1 peptide 3324.0831 (position 176)],859
7,IVLNHMTGAQSGKGT [Der p 4 peptide 3324.0987 (position 96)],65
8,IEFRFYKEITNVFRG [Der p 4 peptide 3324.0976 (position 251)],318

# Molecular target: T1, HLA-DP DPB1*0201
# Assay: inhibition of radiolabeled peptide binding to purified HLA-DP
row,Binder,IC50 [nM]
1,LEKISNEIKIVATPD [Bet v 1 (96-110) peptide 3324.0353],7570
2,EHRWREIYNMVKFRM [Der p 4 (381-395) peptide 3324.0986],109
3,AFMLAWNYGVPRVMS [Der p 4 (321-335) peptide 3324.0977],185
4,PSVIPAARLFKAFIL [Aln g 1 (11-25) peptide 3324.0004],63
5,EIYNMVKFRMIAGQE [Der p 4 (386-400) peptide 3324.0978],5.3
6,YVGHDEFDAFVAYHI [Der p 4 (476-490) peptide 3324.0975],177
7,IEFRFYKEITNVFRG [Der p 4 (251-265) peptide 3324.0976],35
8,GGSILKISNKFHTKG [Aln g 1 (111-125) peptide 3324.0007],843
9,SRGNRAFIAINLQKN [Der p 4 (416-430) peptide 3324.0974],7.2

# Molecular target: T2, HLA-DP DPB1*0401
# Assay: as above
row,Binder,IC50 [nM]
1,LEKISNEIKIVATPD [Bet v 1 (96-110) peptide 3324.0353],6820
2,EHRWREIYNMVKFRM [Der p 4 (381-395) peptide 3324.0986],549
3,GGSILKISNKYHTKG [Bet v 1 (111-125) peptide 3324.0352],10500
4,AFMLAWNYGVPRVMS [Der p 4 (321-335) peptide 3324.0977],5160
5,FDAFVAYHIGARIVS [Der p 4 (482-496) peptide 3324.0971],71
6,PSVIPAARLFKAFIL [Aln g 1 (11-25) peptide 3324.0004],7280
7,FSGVAATESAYLAYR [Der f 1 (136-150) peptide 3324.0666],1440
8,RTLNKIVYIKPAKNI [Bet v 6 (206-220) peptide 3324.0387],41
9,EIYNMVKFRMIAGQE [Der p 4 (386-400) peptide 3324.0978],122
10,YVGHDEFDAFVAYHI [Der p 4 (476-490) peptide 3324.0975],273
11,GGSILKISNKFHTKG [Aln g 1 (111-125) peptide 3324.0007],18500

# Molecular target: HLA-DQ molecule DQB1*0503 (human)
# Assay: inhibition of radiolabeled peptide binding to purified HLA-DQ
row,Binder,IC50 [nM]
1,ASVIPPARLFKAFVL [Que a 1 (11-25) peptide ASVIPPARLFKAFVL],1950
2,IFSQNMNIKLQMPLY [Cup a 1 (71-85) peptide IFSQNMNIKLQMPLY],4900
3,IIFSQNMNIKLKMPL [Cup s 1 (91-105) peptide IIFSQNMNIKLKMPL],36000
4,NLALSIKYNKEGDSM [Dac g 2 (16-30) peptide NLALSIKYNKEGDSM],8960

# Molecular target: HLA-DQ molecule DQB1*0602 (human)
# Assay: as above
row,Binder,IC50 [nM]
1,IFSQNMNIKLQMPLY [Cup a 1 (71-85) peptide IFSQNMNIKLQMPLY],262
2,IIFSQNMNIKLKMPL [Cup s 1 (91-105) peptide IIFSQNMNIKLKMPL],1860
3,NLALSIKYNKEGDSM [Dac g 2 (16-30) peptide NLALSIKYNKEGDSM],258

# Molecular target: HLA DQ molecule DQB1*0502 (human)
# Assay: inhibition of radiolabeled peptide binding to purified HLA class II
row,Binder,IC50 [nM]
1,"IFYDVFFAVANGNEL [Fel d 1 2 (26-40) peptide IFYDVFFAVANGNEL, Peptide ID 3324.1052]",6650
2,"QIDAFIANAGATADS [Cla h 8 (101-115) peptide QIDAFIANAGATADS, Peptide ID 3324.0601]",819
3,"KELKGAYVYFASDAS [Cla h 8 (236-250) peptide KELKGAYVYFASDAS, Peptide ID 3324.0598]",4670
4,"GCIHMARSLANEWRD [Cla h 8 (181-195) peptide GCIHMARSLANEWRD, Peptide ID 3324.0602]",673
5,"AFLLLGLAGNSSPSA [Cla h 5 (6-20) peptide, Peptide ID 3324.0576]",718
6,"GGRLAFQEFMIVPSG [Cla h 6 (161-175) peptide GGRLAFQEFMIVPSG, Peptide ID 3324.0588]",4950

# Molecular target: HLA DQ molecule DQB1*0503 (human)
# Assay: as above
row,Binder,IC50 [nM]
1,"IFYDVFFAVANGNEL [Fel d 1 2 (26-40) peptide IFYDVFFAVANGNEL, Peptide ID 3324.1052]",8130
2,"QIDAFIANAGATADS [Cla h 8 (101-115) peptide QIDAFIANAGATADS, Peptide ID 3324.0601]",84
3,"GTGSLVITASMSGHI [Cla h 8 (151-165) peptide GTGSLVITASMSGHI, Peptide ID 3324.0603]",13800
4,"KELKGAYVYFASDAS [Cla h 8 (236-250) peptide KELKGAYVYFASDAS, Peptide ID 3324.0598]",518
5,"GCIHMARSLANEWRD [Cla h 8 (181-195) peptide GCIHMARSLANEWRD, Peptide ID 3324.0602]",649
6,"GGRLAFQEFMIVPSG [Cla h 6 (161-175) peptide GGRLAFQEFMIVPSG, Peptide ID 3324.0588]",2440

# Molecular target: HLA DQ molecule DQB1*0202 (human)
# Assay: as above
row,Binder,IC50 [nM]
1,"DAFIAALTEALRVIA [Pha a 5 peptide, position 121, DAFIAALTEALRVIA (Peptide ID 3324.1432)]",2040
2,"LIEKINAGFKAAVAA [Lol p 5 1 peptide, position 71, LIEKINAGFKAAVAA (Peptide ID 3324.1175)]",50000
3,"NVFDEVIPTAFTVGK [Lol p 3 peptide, position 76, NVFDEVIPTAFTVGK (Peptide ID 3324.1141), listing 1 of 2 here]",1700

# Molecular target: HLA DQ molecule DQB1*0503 (human)
# Assay: as above
# Remark: another data set of the same source
row,Binder,IC50 [nM]
1,"DAFIAALTEALRVIA [Pha a 5 peptide, position 121, DAFIAALTEALRVIA (Peptide ID 3324.1432)]",50000
2,"LIEKINAGFKAAVAA [Lol p 5 1 peptide, position 71, LIEKINAGFKAAVAA (Peptide ID 3324.1175)]",147
3,"NVFDEVIPTAFTVGK [Lol p 3 peptide, position 76, NVFDEVIPTAFTVGK (Peptide ID 3324.1141), listing 1 of 2 here]",2900

# Molecular target: HLA-DP molecule DPB1*2001 (human)
# Assay: inhibition of radiolabeled peptide binding to purified HLA-DP
row,Binder,IC50 [nM]
1,"QKLMEDINVGFKAAV [Poa p 5 peptide, position 51, QKLMEDINVGFKAAV (Peptide ID 3324.1580)]",2180
2,"NVFDEVIPTAFTVGK [Lol p 3 peptide, position 76, NVFDEVIPTAFTVGK (Peptide ID 3324.1141), listing 2 of 2 here]",13200
3,"SDAKTLVLNIKYTRP [Lol p 3 peptide, position 11, SDAKTLVLNIKYTRP (Peptide ID 3324.1142)]",24000
